Measured values as given in patent US20200024330A1.

Experiments:
Assay in all cases: cell-based or functional assay
[1] = biological target: HIV-1 Env of isolate 92TH021 (HIV-1)
[2] = biological target: HIV-1 Env of isolate JRCSF (HIV-1) (UniProt P20871)
[3] = biological target: HIV-1 Env of isolate MGRM-C-026 (HIV-1)
[4] = biological target: HIV-1 Env of isolate 93IN905 (HIV-1)
[5] = biological target: HIV-1 Env of isolate 93MW959 (HIV-1)
[6] = biological target: HIV-1 Env of isolate 97ZA012 (HIV-1)
[7] = biological target: HIV-1 Env of isolate 98IN022 (HIV-1)
[8] = biological target: HIV-1 Env of isolate MGRM-Chronic-B-010 (HIV-1)
[9] = biological target: HIV-1 Env of isolate MGRM-Chronic-B-011 (HIV-1)
[10] = biological target: HIV-1 Env of isolate MGRM-Chronic-B-012 (HIV-1)
[11] = biological target: HIV-1 Env of isolate MGRM-Chronic-B-017 (HIV-1)
[12] = biological target: HIV-1 Env of isolate MGRM-Chronic-B-018 (HIV-1)
[13] = biological target: HIV-1 Env of isolate MGRM-Chronic-B-020 (HIV-1)
[14] = biological target: HIV-1 Env of isolate MGRM-Chronic-B-023 (HIV-1)
[15] = biological target: HIV-1 Env of isolate MGRM-Chronic-B-024 (HIV-1)
[16] = biological target: HIV-1 Env of isolate MGRM-D-011 (HIV-1)
[17] = biological target: HIV-1 Env of isolate MGRM-D-012 (HIV-1)
[18] = biological target: HIV-1 Env of isolate MGRM-D-013 (HIV-1)
[19] = biological target: HIV-1 Env of isolate MGRM-D-014 (HIV-1)
[20] = biological target: HIV-1 Env of isolate MGRM-D-016 (HIV-1)
[21] = biological target: HIV-1 Env of isolate MGRM-D-018 (HIV-1)
[22] = biological target: HIV-1 Env of isolate MGRM-D-019 (HIV-1)
[23] = biological target: HIV-1 Env of isolate MGRM-D-020 (HIV-1)
[24] = biological target: HIV-1 Env of isolate MGRM-D-021 (HIV-1)
[25] = biological target: HIV-1 Env of isolate MGRM-D-022 (HIV-1)
[26] = biological target: HIV-1 Env of isolate MGRM-D-024 (HIV-1)
[27] = biological target: HIV-1 Env of isolate MGRM-D-026 (HIV-1)
[28] = biological target: HIV-1 Env of isolate MGRM-D-028 (HIV-1)
[29] = biological target: HIV-1 Env of isolate MGRM-D-029 (HIV-1)
[30] = biological target: HIV-1 Env of isolate MGRM-F1-004 (HIV-1)
[31] = biological target: HIV-1 Env of isolate MGRM-F1-006 (HIV-1)
[32] = biological target: HIV-1 Env of isolate MGRM-F1-008 (HIV-1)
[33] = biological target: HIV-1 Env of isolate MGRM-F1-010 (HIV-1)
[34] = biological target: HIV-1 Env of isolate MGRM-F1-012 (HIV-1)
[35] = biological target: HIV-1 Env of isolate MGRM-F1-013 (HIV-1)
[36] = biological target: HIV-1 Env of isolate MGRM-F1-014 (HIV-1)
[37] = biological target: HIV-1 Env of isolate MGRM-F1-015 (HIV-1)
[38] = biological target: HIV-1 Env of isolate MGRM-F1-016 (HIV-1)
[39] = biological target: HIV-1 Env of isolate MGRM-F1-017 (HIV-1)
[40] = biological target: HIV-1 Env of isolate MGRM-F1-018 (HIV-1)
[41] = biological target: HIV-1 Env of isolate MGRM-F1-020 (HIV-1)
[42] = biological target: HIV-1 Env of isolate MGRM-F1-021 (HIV-1)
[43] = biological target: HIV-1 Env of isolate MGRM-F1-022 (HIV-1)
[44] = biological target: HIV-1 Env of isolate MGRM-F1-023 (HIV-1)
[45] = biological target: HIV-1 Env of isolate NL43 (HIV-1)
[46] = biological target: HIV-1 Env of isolate PVO.4 (HIV-1)
[47] = biological target: HIV-1 Env of isolate QH0692.42 (HIV-1)
[48] = biological target: HIV-1 Env of isolate SC422661.8 (HIV-1)
[49] = biological target: HIV-1 Env of isolate SF162 (HIV-1) (UniProt P19550)
[50] = biological target: HIV-1 Env of isolate THR0.18 (HIV-1)
[51] = biological target: HIV-1 Env of isolate TRJ04551.58 (HIV-1)
[52] = biological target: HIV-1 Env of isolate TRO.11 (HIV-1)
[53] = biological target: HIV-1 Env of isolate VLGCB3 (HIV-1)

PGT-143 (antibody), sequence (VH): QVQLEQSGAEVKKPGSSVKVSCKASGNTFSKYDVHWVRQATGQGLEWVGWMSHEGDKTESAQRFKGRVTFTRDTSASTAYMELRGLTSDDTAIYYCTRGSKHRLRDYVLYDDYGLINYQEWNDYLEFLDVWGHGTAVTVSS
PGT-143 (antibody), sequence (VL): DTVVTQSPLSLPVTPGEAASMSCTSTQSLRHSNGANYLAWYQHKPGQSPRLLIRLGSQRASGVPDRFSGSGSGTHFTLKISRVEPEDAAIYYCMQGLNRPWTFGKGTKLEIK

PGT-133 (B cell culture well 5117_E22) (antibody)
Primary Neutralization Index (B cell culture well 5117 E22) [1]: 42.5 | Primary Neutralization Index (B cell culture well 5117 E22) [2]: 3.6 | Primary Neutralization Index (B cell culture well 5117 E22) [3]: 3.4

PGT-143 (antibody)
neutralization IC50 [4]: 0.002 mg/L | neutralization IC50 [5]: 0.002 mg/L | neutralization IC50 [6]: > 50 mg/L | neutralization IC50 [7]: 0.001 mg/L | neutralization IC50 [2]: 0.007 mg/L | neutralization IC50 [8]: > 50 mg/L | neutralization IC50 [9]: 1.56 mg/L | neutralization IC50 [10]: > 50 mg/L | neutralization IC50 [11]: 0.145 mg/L | neutralization IC50 [12]: 0.377 mg/L | neutralization IC50 [13]: > 50 mg/L | neutralization IC50 [14]: 0.236 mg/L | neutralization IC50 [15]: 0.01 mg/L | IC50, pseudovirus neutralization [16]: > 50 mg/L | IC50, pseudovirus neutralization [17]: > 50 mg/L | IC50, pseudovirus neutralization [18]: 0.386 mg/L | IC50, pseudovirus neutralization [19]: 0.009 mg/L | IC50, pseudovirus neutralization [20]: > 50 mg/L | IC50, pseudovirus neutralization [21]: > 50 mg/L | IC50, pseudovirus neutralization [22]: 0.277 mg/L | IC50, pseudovirus neutralization [23]: > 50 mg/L | IC50, pseudovirus neutralization [24]: > 50 mg/L | IC50, pseudovirus neutralization [25]: > 50 mg/L | IC50, pseudovirus neutralization [26]: > 50 mg/L | IC50, pseudovirus neutralization [27]: 44.6 mg/L | IC50, pseudovirus neutralization [28]: > 50 mg/L | IC50, pseudovirus neutralization [29]: 0.2 mg/L | IC50, pseudovirus neutralization [30]: 0.036 mg/L | IC50, pseudovirus neutralization [31]: 12.3 mg/L | IC50, pseudovirus neutralization [32]: 0.189 mg/L | IC50, pseudovirus neutralization [33]: > 50 mg/L | IC50, pseudovirus neutralization [34]: > 50 mg/L | IC50, pseudovirus neutralization [35]: 0.013 mg/L | IC50, pseudovirus neutralization [36]: 0.001 mg/L | IC50, pseudovirus neutralization [37]: > 50 mg/L | IC50, pseudovirus neutralization [38]: > 50 mg/L | IC50, pseudovirus neutralization [39]: 26.3 mg/L | IC50, pseudovirus neutralization [40]: 0.701 mg/L | IC50, pseudovirus neutralization [41]: 0.98 mg/L | IC50, pseudovirus neutralization [42]: > 50 mg/L | IC50, pseudovirus neutralization [43]: 0.082 mg/L | IC50, pseudovirus neutralization [44]: 0.972 mg/L | neutralization IC50 [45]: > 50 mg/L | neutralization IC50 [46]: 0.162 mg/L | neutralization IC50 [47]: > 50 mg/L | neutralization IC50 [48]: 2.02 mg/L | neutralization IC50 [49]: > 50 mg/L | neutralization IC50 [50]: 0.016 mg/L | neutralization IC50 [51]: > 50 mg/L | neutralization IC50 [52]: 0.219 mg/L | neutralization IC50 [53]: > 50 mg/L
